Test results from patent publication US20220119523A1, “TREATMENT OF CUTANEOUS T CELL LYMPHOMA WITH TARGETING OF CD47 PATHWAY” (The Board of Trustees of the Leland Stanford Junior …, priority 2019, published 2022).

Tests used:
[1] = tested on: newly diagnosed AML patients 65 years or older; conditions: 75 mg/m^2 per day SC for 7 consecutive days per 28-day cycle, at least 6 cycles; conventional care regimens 6.5 months; cited from earlier work
[2] = tested on: CTCL tumor cells; test: In vitro phagocytosis assay, co-culture of macrophages with CTCL tumor cells; type: cell-based, human; conditions: for phagocytosis (percentage of GFP+ macrophages): 2 hours co-culture
Description: (§1) Cancer Cells. HH (CTCL lymphoblast ATCC); HuT78 (Sezary Syndrome CTCL, ATCC); HuT102 (Mycosis Fungoides CTCL, ATCC); and MJ (Mycosis Fungoides CTCL, ATCC) were cultured in RPMI (ThermoFisher S.) (DLD1), EMEM (ThermoFisher S.) (CACO-2, LS174T), McCoy's 5A (ThermoFisher S.) (HT29, HCT116), or Leibovitz's L-15 (ThermoFisher S.) (SW48, SW 620) supplemented with 10% fetal bovine serum (Omega Scientific), 100 U/mL penicillin and 100 μg/mL streptomycin (ThermoFisher S.)
(§2) In Vitro Phagocytosis Assay. Peripheral blood mononuclear cells were enriched by density gradient centrifugation and monocytes were purified with anti-CD14 microbeads (Miltenyi) and differentiated to macrophages by culture for 7-10 days in IMDM+GlutaMax (Invitrogen) supplemented with 10% AB-Human Serum (Invitrogen) and 100 U/mL penicillin and 100 μg/mL streptomycin (Invitrogen). Phagocytosis assays were performed by co-culture of 50,000 macrophages with 100,000 CTCL tumor cells for 2 hours, then analyzed using an LSRFortessa cell analyzer with high throughput sampler (BD Biosciences). Antibodies used for treatment included: IgG4 isotype control, anti-CD47—clone magrolimab (Stanford). Macrophages were identified by flow cytometry using anti-CD206 antibody. Dead cells were excluded from the analysis by staining with DAPI (Sigma). Phagocytosis was evaluated as the percentage of GFP+ macrophages and was normalized to the maximal response by each independent donor against each cell line.

[3] = tested on: HH; test: In vitro phagocytosis assay, HH cell line; type: cell-based, human; conditions: HH cells; macrophage from NOD scid gamma mice (NSG); vs IgG4 control antibody; FIG. 2A-2B
Description: as §1
as §2, with “Dead cells were excluded from the analysis by staining with DAPI (Sigma).” left out

[4] = tested on: HUT78; test: In vitro phagocytosis assay, HUT78 cell line; type: cell-based, human; conditions: HUT78 cells; macrophage from NOD scid gamma mice (NSG); vs IgG4 control antibody; FIG. 2A-2B
[5] = tested on: HH tumor cells; test: Xenograft tumor model, HH cells in NSG mice; type: in vivo; conditions: 250 μg intraperitoneal every other day, vs PBS
Description: (§3) Mice. 6-8 week old NSG (NOD.Cg-Prkdcscid Il2rgtm1Wjl/SzJ) mice were used.
(§4) Xenograft Tumor Models. […] For all treatments, antibodies where administered by intraperitoneal injection (100 μl) as follows: PBS and […] (250 μg) every other day. Tumor volume and survival was monitored.

[6] = tested on: HuT78 tumor cells; test: Xenograft tumor model, HuT78 cells in NSG mice; type: in vivo; conditions: 250 μg intraperitoneal every other day, vs PBS
Description: as §3, §4

Molecule: Nc1ncn([C@@H]2O[C@H](CO)[C@@H](O)[C@H]2O)c(=O)n1 [azacitidine]
- Median OS [1]: 10.4 months

B1: anti-CCR4: antibody that corresponds to mogamulizumab, a defucosylated anti-CCR4 humanized IgG1 antibody binding the N-terminal domain of CCR4 (antibody, chains of the INN, looked up, V domains shown)
VH: EVQLVESGGDLVQPGRSLRLSCAASGFIFSNYGMSWVRQAPGKGLEWVATISSASTYSYYPDSVKGRFTISRDNAKNSLYLQMNSLRVEDTALYYCGRHSDGNFAFGYWGQGTLVTVSS
VL: DVLMTQSPLSLPVTPGEPASISCRSSRNIVHINGDTYLEWYLQKPGQSPQLLIYKVSNRFSGVPDRFSGSGSGTDFTLKISRVEAEDVGVYYCFQGSLLPWTFGQGTKVEIK
- phagocytosis, combination of anti-CD47 and anti-CCR4 ([2]; FIG. 3A-3B, combined antibodies): synergizes with anti-CD47 antibody
- phagocytosis, antibody by itself ([2]; FIG. 3A-3B, single agent): little or no effect on phagocytosis

B2: Magrolimab: monoclonal antibody designed to block CD47; specifically binds human CD47; humanized 5F9 with IgG4 (antibody, chains of the INN, looked up, V domains shown)
VH: QVQLVQSGAEVKKPGASVKVSCKASGYTFTNYNMHWVRQAPGQRLEWMGTIYPGNDDTSYNQKFKDRVTITADTSASTAYMELSSLRSEDTAVYYCARGGYRAMDYWGQGTLVTVSS
VL: DIVMTQSPLSLPVTPGEPASISCRSSQSIVYSNGNTYLGWYLQKPGQSPQLLIYKVSNRFSGVPDRFSGSGSGTDFTLKISRVEAEDVGVYYCFQGSHVPYTFGQGTKLEIK
- phagocytosis (percent of phagocytosis / percent of maximum phagocytosis) [3]: increased phagocytosis
- phagocytosis (percent of phagocytosis / percent of maximum phagocytosis) [4]: increased phagocytosis
- phagocytosis (percentage of GFP+ macrophages) ([2]; human macrophages (FIG. 2B)): significant increase in phagocytosis
- phagocytosis (percentage of GFP+ macrophages) ([2]; mouse macrophages (FIG. 2A)): significant increase in phagocytosis
- tumor volume ([5]; FIG. 4A): reduced
- survival ([5]; FIG. 4B): improved
- tumor volume ([6]; FIG. 5A): reduced
- survival ([6]; FIG. 5B): improved
